From US20210186964, “METHODS OF TREATING CANCERS” (Dana-Farber Cancer Institute, Inc., published 2021)

T1: USP1 (UniProt O94782 SEQ:1-770)
T1 sequence: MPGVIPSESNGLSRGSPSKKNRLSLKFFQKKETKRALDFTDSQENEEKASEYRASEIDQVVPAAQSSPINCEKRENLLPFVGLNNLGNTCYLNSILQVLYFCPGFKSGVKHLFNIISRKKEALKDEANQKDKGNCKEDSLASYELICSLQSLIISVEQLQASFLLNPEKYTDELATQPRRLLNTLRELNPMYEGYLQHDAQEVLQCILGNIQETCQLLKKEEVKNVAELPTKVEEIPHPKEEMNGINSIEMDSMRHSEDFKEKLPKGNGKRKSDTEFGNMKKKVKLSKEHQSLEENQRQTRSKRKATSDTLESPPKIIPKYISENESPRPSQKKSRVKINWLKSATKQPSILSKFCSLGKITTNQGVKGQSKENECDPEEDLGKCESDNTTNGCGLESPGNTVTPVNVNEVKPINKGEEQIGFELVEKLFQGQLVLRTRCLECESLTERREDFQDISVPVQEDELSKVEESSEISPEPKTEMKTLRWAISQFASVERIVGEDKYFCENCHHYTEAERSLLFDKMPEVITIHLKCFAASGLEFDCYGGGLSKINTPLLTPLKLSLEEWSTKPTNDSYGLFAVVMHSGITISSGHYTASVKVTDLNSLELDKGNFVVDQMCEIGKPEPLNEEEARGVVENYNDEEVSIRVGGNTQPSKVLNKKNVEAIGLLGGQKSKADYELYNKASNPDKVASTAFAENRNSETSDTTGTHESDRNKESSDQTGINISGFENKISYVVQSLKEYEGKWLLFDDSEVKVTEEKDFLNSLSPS


Assays:
[1] = target: USP12 (UniProt O75317 SEQ:1-370); assay: EMSA; 300 nM USP12; settings: label: Cy3
Chain of USP12 (O75317 whole entry): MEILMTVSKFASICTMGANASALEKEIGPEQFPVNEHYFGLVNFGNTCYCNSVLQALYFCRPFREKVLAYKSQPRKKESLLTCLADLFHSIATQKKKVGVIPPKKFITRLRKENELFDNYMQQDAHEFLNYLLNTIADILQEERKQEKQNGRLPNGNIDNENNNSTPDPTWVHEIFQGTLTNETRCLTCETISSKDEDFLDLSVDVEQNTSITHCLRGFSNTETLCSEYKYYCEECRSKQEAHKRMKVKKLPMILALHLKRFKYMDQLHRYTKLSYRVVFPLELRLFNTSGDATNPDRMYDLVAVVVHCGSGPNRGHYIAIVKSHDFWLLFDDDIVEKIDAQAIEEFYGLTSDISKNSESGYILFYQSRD
Procedure: (§1) Recombinant USP1 and UAF1 proteins from R&D systems (E564, E566) were used for some electromobility shift assays and in vitro deubiquitination assays. Electromobility shift assays were performed by pre-incubating fluorophore (Cy3)-tagged DNA and purified protein in binding buffer (20 mM Hepes (pH 7.6), 0.1M KCl, 5 mM MgCl2, 3% (v/v) glycerol, 0.25 mg/ml BSA, 0.05 mM EDTA, 0.5 mM DTT, 0.01% (v/v) NP-40) for 30 min on ice. Samples were then loaded onto 6% polyacrylamide gels and ran at 65V in 0.5× TBE for 135 min at 4° C. Gels were visualized using the LAS-4000 imaging system (GE Healthcare Life Sciences, Pittsburgh, Pa.). DNA used for Ub-AMC, Ub-CHOP2 and electromobility shift assay were 40 bp in length and were designed to have minimal potential of secondary structure formation. The sequences are as follows:
USP1, USP12, and USP46 are related DUB proteins which bind and are stimulated by UAF1 (20, 23, 24, 31, 32). All three proteins contain a conserved UAF1 binding site, localized to a zinc finger region of each polypeptide (FIG. 10A). These USPs bind to a discrete WD40 domain of UAF1 (23, 24). Of the three proteins, USP1 is the largest protein, as shown by the sequence alignment with USP12 and USP46 (FIG. 10C).

[2] = target: USP1/UAF1 complex (UniProt O94782;Q8TAF3 O94782:1-785,Q8TAF3:1-677); assay: EMSA; 100 nM USP1 + 300 nM UAF1; settings: tags: SF9-made, R&D systems or Boston Biochem, label: Cy3
Chain of USP1/UAF1 complex (Q8TAF3 whole entry, one chain of several): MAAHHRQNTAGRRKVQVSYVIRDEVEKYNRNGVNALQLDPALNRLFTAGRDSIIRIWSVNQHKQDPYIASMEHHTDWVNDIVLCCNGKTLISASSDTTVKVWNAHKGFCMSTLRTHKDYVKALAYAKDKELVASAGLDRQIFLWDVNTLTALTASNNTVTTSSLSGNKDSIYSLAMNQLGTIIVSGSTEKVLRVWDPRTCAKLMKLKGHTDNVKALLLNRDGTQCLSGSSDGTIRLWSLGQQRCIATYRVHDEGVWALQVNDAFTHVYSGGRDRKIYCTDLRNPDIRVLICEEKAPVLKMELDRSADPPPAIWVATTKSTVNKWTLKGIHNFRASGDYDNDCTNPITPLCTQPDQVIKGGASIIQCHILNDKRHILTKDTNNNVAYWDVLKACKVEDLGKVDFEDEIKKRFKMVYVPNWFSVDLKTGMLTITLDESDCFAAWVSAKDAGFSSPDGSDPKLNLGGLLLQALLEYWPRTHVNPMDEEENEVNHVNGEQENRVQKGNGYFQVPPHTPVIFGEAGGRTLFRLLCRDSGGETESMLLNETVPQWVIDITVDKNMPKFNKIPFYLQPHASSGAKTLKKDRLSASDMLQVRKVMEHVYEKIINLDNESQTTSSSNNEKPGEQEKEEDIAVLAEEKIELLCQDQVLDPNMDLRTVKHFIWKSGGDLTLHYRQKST
Procedure: as §1
(§2) Since UAF1 has DNA binding activity, USP1 might also bind DNA and thereby stabilize replication forks. To test this hypothesis, DNA gel shift assays were performed with purified UAF1 protein with or without purified USP1 protein to analyze direct DNA binding activity. Purified proteins were incubated with either single strand DNA, double strand DNA, or fork DNA. The UAF1 protein and the USP1/UAF1 complex generated a reproducible gel shift of all three DNA templates.

[3] = target: UAF1 (WDR48) (UniProt Q8TAF3 Q8TAF3:1-677); assay: EMSA; 300 nM UAF1; settings: tags: SF9-made or R&D systems E566, label: Cy3
Chain of UAF1 (WDR48) (Q8TAF3 whole entry, one chain of several): as above
Procedure: as §1, §2

[4] = target: T1, USP1; assay: EMSA; 300 nM USP1; strongest shift; 5 mM MgCl2, 0.1 M KCl, on ice; not disrupted by ML323 (FIG. 11C); settings: tags: SF9-made or R&D systems E564; label: Cy3; fork with non-complementary single-stranded arms
Procedure: as §1, §2

[5] = fork with non-complementary single-stranded arms

Binder	binding result [1, 5]	binding result [2, 5]	binding result [3, 5]	binding result [4]	binding result [1]	binding result [2]	binding result [3]
40-mer fork DNA (structured_DNA) DNA 1: CCAGTGAATTGTTGCTCGGTACCTGCTAACGGTAATCGG DNA 2: CAGCTATGGGACATTCGATACCGAGCAACAATTCACTGG	no binding	binds	binds	binds	–	–	–
40-mer dsDNA (dsDNA) DNA 1: CCAGTGAATTGTTGCTCGGTACCTGCTAACGGTAATCGG DNA 2: CCGATTACCGTTAGCAGGTACCGAGCAACAATTCACTGG	–	–	–	–	no binding	binds	binds
CCAGTGAATTGTTGCTCGGTACCTGCTAACGGTAATCGG (ssDNA) [40-mer ssDNA (top)]	–	–	–	–	no binding	binds	binds
